Reference: the supplement of paper PMC9170038

Test system: K4 kissing-loop RNA reporter
Test: apparent KD of K4 kissing-loop reporter; higher = weaker reporter binding
Details: Eterna round: R107
Method: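 RNA-MaP round R107: designed RNA switches with theophylline, tryptophan, arginine or FMN aptamers are transcribed on-chip within common flanks. They are titrated with a labelled K4 kissing-loop RNA reporter in RNA-MaP buffer (100 mM Tris pH 7.5, 80 mM KCl, 4 mM MgCl2), without ligand or with the indicated ligand. Median apparent KD per design.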

[1] = input ligand: theophylline 20 uM
[2] = input ligand: tryptophan 2.4 mM
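Also: bound reporter read as fluorescence of individual clusters on recovered sequencing chips by microscopy, with normalized cluster intensities fitted with a binding model.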

Sequence	apparent KD of K4 kissing-loop reporter (input ligand: FMN 200 uM)	apparent KD of K4 kissing-loop reporter (input ligand: arginine 13.2 mM)	apparent KD of K4 kissing-loop reporter (input ligand: none)	apparent KD of K4 kissing-loop reporter [1]	apparent KD of K4 kissing-loop reporter [2]
ACACUCGGCUCGGCCGCCACUCCAGUGAUGUUGGAGUCAUAGCUAUGACGAGAAGAGCGUUUUCGGAGGACCGGGAGCUCACAGG [Leveeder]	338 nM	261 nM	359 nM	351 nM	222 nM
UGUGGUGUAUCCUUUAGGAGUGAUGUUUUUCGAGGACCGGUACGGCCGCCACUCGAGUGAUGAGAGCGUCGUUGUGGUGGUUUGU [#16 K4 Tryptophan A Exclusion]	1060 nM	698 nM	1190 nM	697 nM	730 nM
AGCUCAGAGUGACUCGAUAAGAGUCACAAACGAGGACCGGUACGGCCGCCACUCGAAAUAACGAGAGUGAUGUUCUCGCUGAGCA [#SwitchBubble 1 #StaticStem #K4Late]	1160 nM	517 nM	1000 nM	285 nM	340 nM
AGCAGUCCAGGAUCGAAAGAUCCUGAGGUCCGAGGACCGGUACGGCCGCCACUCGGAGUGAUGUUCCGAAGACUGCAAAAUAAAA [#SwitchBubble 5]	302 nM	236 nM	108 nM	135 nM	105 nM
ACUCCGAGUGAUGUUAAGAGAUUCUCUGUUAAGGAUAUUUUGCGCAAAAGAAGGUAACCCGGUUUUCGUAAUCUGUUAAUGCGGA [theeternabot_exclusion_KL_FMN_A_38]	572 nM	408 nM	581 nM	532 nM	503 nM
UGUGUUUACCUGACUCAGUGAUGUUGAGAAGGAGCGUGCAAAGGCACAGGUAGGUCGCUCAACCUAAAUUCAGGUGAGCACUAAA	246 nM	331 nM	240 nM	310 nM	217 nM
UAGUAGUAGCGAGGAUAUGCAAUAGGCGAGUGAUGUUCGCCAGGCGGGCGUCGCAUAUAAGAAAGAGCAGAAGGCGCUAGGUAGA [SameState - FMN B / A]	814 nM	303 nM	329 nM	397 nM	399 nM
AGAGAUAUAUGAGGAUAUGAGUUAGUUAAUGAGUGAGUUUUAGUGUUGUUUGGUUAGUGAUGUUAUUUAGAAGGCGUGAGUGAUG [ttytmullin]	98.8 nM	75.2 nM	74.9 nM	106 nM	75.9 nM
UGUACAUGUCAGCGAGUGAUGUUCGACGAUACCAGACUCGAUAGAGUCCCUUGGCAGCGUAACGCAUGCCAAACUGGCAUGUACU [#SwitchBubble 9 #K4Early]	789 nM	819 nM	1120 nM	646 nM	773 nM
AAGUGAUGUUGUAGUGAUGUUGUGAUGUUGCAGGAUAUAUAGUGAUGUAGAAGGGUAUGUGCAGUUUUCUUUUUUGAGUGUUGAU [aavamullin]	72.1 nM	30.8 nM	57.1 nM	43.7 nM	56.9 nM
AAUUGAGUGACGGCCGCCACUAGAGUGAUUUUUUUGUUUGAGUGAUGUUUUGAUGUUUGAUUUUGUAGGACCGGGUUGAGUGAUG [qqxzmullin]	305 nM	306 nM	357 nM	528 nM	247 nM
CGCGCCCAGCCGGAUACCAGUGACCCGCUGGGAACCGCGGGCCCAGAGUGAUGUUCGGGACACCCUUGGCAGCCGCCUGGGCGGC [#2 Same State - Theophylline B Attempt #9 (HarryS)]	1370 nM	229 nM	999 nM	717 nM	766 nM
ACAGUUGCUAGUGAUACCAGACUAGCACUACGUAAUAUGUCAAGUGAUGUUUGACAACUAGUCCCUUGGCAGCGCGAUACGACUG [#11 K4 Theophylline B Same State]	235 nM	289 nM	259 nM	269 nM	225 nM
UGACUGGACUGAAGGAGCGCGAAACUCCUAGUGAUGUUAGGACAACGAGACAAAGUCUCGACGCAGGUAGGUCGCAGUCUAGUCU	148 nM	111 nM	131 nM	144 nM	132 nM
GCUAUGGUAGGAAGGAGCGCUUAUUUAUUUUUAAGAGUGAUGUUCGUUAGUAGAUAGUUAAAGCAGGUAGGUCGCCUACUAUAGC [Arginine B K4 15]	146 nM	177 nM	171 nM	161 nM	100 nM
CCAUCGCUAUUCGAUACCAGCUACUUAGUGAUGUUAAGUUUAAAUCCACUGUAGGUGGAAAGCCCUUGGCAGCGAAUAGUGAUGG [Theophylline B K4 24]	315 nM	274 nM	306 nM	157 nM	245 nM
UGAUAGGACAGAAGGAGCGGAAGUGAUGUUUCCAAAAGGUAAGGUCGACAAAGUCGACCCUUCCAGGUAGGUCGCUGUCCUAUCU [ArgBX 11 #Palindromic #SwitchBubble #StaticStem]	88.5 nM	102 nM	92.8 nM	89.2 nM	82.4 nM
